{
  "source": "IntAct's records for PubMed 23804756",
  "parents": {"B1": {"name": "MIF4G domain-containing protein (Homo sapiens), A9UHW6 (parent)", "chain": "MGEPSREEYKIQSFDAETQQLLKTALKDPGAVDLEKVANVIVDHSLQDCVFSKEAGRMCYAIIQAESKQAGQSVFRRGLLNRLQQEYQAREQLRARSLQGWVCYVTFICNIFDYLRVNNMPMMALVNPVYDCLFRLAQPDSLSKEEEVDCLVLQLHRVGEQLEKMNGQRMDELFVLIRDGFLLPTGLSSLAQLLLLEIIEFRAAGWKTTPAAHKYYYSEVSD"}},
  "data": [
    {"variants_of": "B1", "settings": "with slbp_human SLBP", "values": [
      {"variant": "R77A;N81A;Q84A", "effect of a mutation on the interaction": "decreasing interaction strength"}
    ]}
  ]
}
